In paper PMC4043820:

Biological target: OsWRKY53 (WT) (Oryza sativa (rice)) (UniProt A7BEY7)
Assay: EMSA
Details: 12 mM HEPES-KOH pH 8.0, 60 mM KCl, 4 mM MgCl2, 1 mM EDTA, 12% glycerol, 1 mM DTT, 2.5 mM PMSF, 0.1 ug protein in 20 ul, 20 min on ice; 6% PAGE in 1x TBE at …

Sequence of OsWRKY53 (WT) (Oryza sativa (rice)) (A7BEY7 entry or part of it): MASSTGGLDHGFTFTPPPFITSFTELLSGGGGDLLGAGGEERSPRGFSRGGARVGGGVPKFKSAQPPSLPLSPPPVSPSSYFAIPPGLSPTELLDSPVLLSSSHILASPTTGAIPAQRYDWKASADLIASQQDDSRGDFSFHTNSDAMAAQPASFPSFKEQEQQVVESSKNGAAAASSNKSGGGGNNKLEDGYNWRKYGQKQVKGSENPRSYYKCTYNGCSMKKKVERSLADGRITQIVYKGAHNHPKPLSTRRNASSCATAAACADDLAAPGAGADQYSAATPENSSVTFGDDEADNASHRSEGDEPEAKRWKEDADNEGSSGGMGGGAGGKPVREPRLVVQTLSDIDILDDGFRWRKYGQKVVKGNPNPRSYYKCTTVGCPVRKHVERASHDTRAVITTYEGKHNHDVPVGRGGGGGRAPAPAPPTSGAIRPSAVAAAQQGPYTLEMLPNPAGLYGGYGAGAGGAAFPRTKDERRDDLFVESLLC

With “TTTGGGGATGCTTCGGCGAAGGGGGTGAGGTCAAAGCTCGTGCGGTTTGACCGGTCAGACGAGGCGGCTGAGGCTCGCGC (double strand) [W-box probe (W)]” the binding was “binds”.
